Data: the nanobody polyreactivity screen of Harvey et al. (2022)

Test: yeast display, Sf9 membrane polyspecificity reagent, FACS + sequencing; frameworks hold sequencing errors
Method in brief: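 Sorting gates, low and high (top ~1%), were placed on anti-HA fluorescence to track expression and on streptavidin fluorescence to track reagent binding. A clone's polyreactivity label is taken from the gate it came out of. The reagent was 10% biotinylated, detergent-solubilized Sf9 membrane, applied for 1 hour at 4 °C to galactose-induced yeast display cells.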

| Sequence | polyreactivity (PSR sort gate) |
| --- | --- |
| QVQLVESGGGLVQAGGSLRLSCAASGRTFTYYAMGWYRRAPGKERELVAAIRWTGDSTYYADSVKGRFTISRDNAKNTVYLQMNSLKPEHTAVYYCATQARWQYDGGIRWYYYWGQGTQVTVSS | high polyreactivity |
| QVQLVESGGGLVQAGGSLRLSCAASGRTFTGYTMGWYRQAPGKEREFVAAISSNGGRTYYADSVKGRFTISRDNAKNTVYIQMNSLKPEDTAVYYCAAPYTFWGQGTQVTVSS | high polyreactivity |
| QVQLVESGGGLVQAGGSLRLSCAASGSTFPYPYTMGWYRQAPGKERELVAVISRTGGSTFYADSVKGRFTISRDNAKNTVYLQMNSLKPEDTAVYYCAARYAVGAHYDYWGQGTQVTVSS | high polyreactivity |
| QVQLVESGGGLVQAGGSLRLSCAAYGFTFYPYAMGWYRQAPGKEREVVAASNSGGSTYYADSVKGRFTISRDNAKNTVYLQMNSLKPEDTAVYYCSAYGKRGAVAFYYWGQGTQVTVSS | high polyreactivity |
| QVQHVESGGGLVQAGGSLRLSCAASGRIFHGYAMGWYRQSPGKERELVAAITSRGGSTYYADSVKGRFTISRDNAKNTVYLQMNSLKPEDTAVYYCNAGRYLYAFDYWGQGTQVTVSS | low polyreactivity |
| QVQLVESGGGLVQAGGSLRLSCAASGRTFRKYTMGWYRQAPGKERELVAASASRGGSTYYADSVKGRFTISRDNAKNTVYLQMNSLKPEDTAVYYCATDYITPSSDGDYWGQGTQVTVSS | high polyreactivity |
| QVQLVESGGGLVQAGGSLRLSCAASGIIFRRYAMGWYRQAPGKERELVAAITRGGITYYADSVKGRFTISRDNAKNTVYLQMNSLKPEDTAVYYCAATYSGTYSLGRGYDYWGQGTQVTVSS | low polyreactivity |
| QVQLVESGGGLVQAGGSLRLSCAASGFIFYYYAMGWYRQAPGKEREFVAGISRSGGSTYYADSVKGRFTISRDHAKNTVNLLQNSLKTEDTAVYYCNARPLYHFWYYSGEEYGYWGQGTQVTVSS | high polyreactivity |
| QDHLVESGGGLVQAGGSLRLTCAASGSIFADYTMGWYRQATGKEMELVAAINNRDGGTYYADSVKGRFTISRDNAKNTVYLEMNSLKPEDTAVYYCTKQVDLSGQWDFWYGYYTYDYWGQGTQLTVSS | low polyreactivity |
| QVQLEESGGGLVQAGGSLRLSCAASGRTFWVYAMGWYRQAPGKERELVAAISRSGVSTYYADSVKGRFTISRDNAKNTVYLQMNSLKPEDTAVYYWAAEARVQFSYDYWGQGTQVTVSS | low polyreactivity |
| QVQLVESGGGLVQAGGSLRLSCAASGFNSHFYAMGSYRQAPGKEREFVDRISYSGGSTYYADSVKGRFTISRDNAKNTVYLQMNSLKPEDTAVYFCAADKHYFRHFGSWGQGTQVTVSS | low polyreactivity |
| QVQLVESGGGLVQAGGSLRLSCAASGSIFDLYAMGWYRQAPGKERELVDAISSGATTNYADSVKGRFTISRDNAKNTVYLQMNSLKPEDTAVYYCAKYYRISSLYVIVSAYDYWGQGTQVTVSS | low polyreactivity |
| QVQLVESGGGLVQAGGSLRLSCAASGSIFGLYAMGWYRQAPGNERELVAAINQSGGSTSYADSVKGRFTISRDNAKNTVYLQMNSLKPEDTAVYYCAAKRSWGATRRAYGRYDYWGQGTQVTVSS | low polyreactivity |
| QVQLVESGGGLVQAGGSLRLSCAASGFIFFGYAMGWYRQAPGKERELVAAITSGGSTYYADSVKGRFTISRDNAKNTVYLQMNSLKPEDTAVYYCAAVRWYGSKRYGYWGQGTQVTVSS | high polyreactivity |
| QVQLVESGGGLVQAGGSLRLSCAASGFIFYIYPMGWYRQAPGKERELLAAISWNGGSTYYADSVKGRFTISRDNAKNTVYLQMNSLNPEDTAVFYCATLARYRYGTGRFDYWGQGTQVTVSS | high polyreactivity |
| QFQLVESGGGLVQAGGSLRLSCAASGFIFRYNAMGWYRQAPGKERELVAAIDSGGSTYYADSVKGRFTISRDNAKNTVDLQMNSLKPEDTAVYYCYAVHEASYSGVDYWGQGTQVTVSS | low polyreactivity |
| QVQLVESGGGLVQAGGSLRLSCAASGSTFRNYAMGWYRQAPGKERELVAAISGSGGRTNYADSVKGRFTISRDNAKNTVYLQMNSLKPEDTAVYYCNGRFPDWALSEISHSTTYGYWGQGTQVTVSS | low polyreactivity |
| QVQLVESGGGLVQAGGSLRLSCAASGRIFPAYAMGWYRQAPGKERELVAAITWTGGRTYYADSVKGRFTISRDNAKNSFYLQMNILKPEDTAVYYCAKAPARSRGYEYWGQGTQVTVSS | low polyreactivity |
| QVQLVESGGGLGQAGGSLRLSCAASGRTFGDYVMGWYRQAPGKEREFVAAITDSGDRTYYADSVKGRFTISRDNAKNTVYLQMNSLKPEDTAVYYCNDEIWDWYYWYAYWGQGTQVTVSS | high polyreactivity |
| QVQLVESAGGLVQAGRSHRLSFAASGSIFYHNAMGWYRQAPGKERELVAAISGRGGSTYYADSVKGRFTISRDNAKNTVYLQMNSLKPEDTAVYYCAADARYQNGGLYYWGQGTQVTVSS | high polyreactivity |
| QVQLVESGGGLVQARGSLRLSCAASGSTSTYYAMGWYRQAPGKERELVAAITSSVGSTHYADSVKGRFTISRDNAKNTVYLQMNSLKPEDTAVYYCAATFGYGRYGYWGQGTQVTVSS | low polyreactivity |
| QVHLVESGGGLVQAGGSLRLSSAASGITFGWYAMGWYRQAPGKERELVAAIDRGGSTYYADSVKGRFTISRDNAKITVYLQMNSLKPEDTAVYYCAVELRLRYGYDYWGQGTEVTVSS | high polyreactivity |

| Sequence | polyreactivity (PSR sort gate) |
| --- | --- |
| QVQLVESGGGLVQAGGSLRLSCAASGFTFDSNAMGWYRQAPGKERELVAAISASGDSTYYADSVKGRFTISRDNAKNTVYLQMNSLKPEDTAVYYCAADRFYGGWRFDHWGQGTQVTVSS | low polyreactivity |
| QVQLVESGGRLVQAGGSLRLSCAASGFIFEWNAKGWYRQAPGKERELVASITFGGGNTYYADSVKGRFTISRDYAQNTDYLQMNSLKPEDTAVYYCAVDYGYWRDSIALGEFDYWGQGTQVTVSS | low polyreactivity |
| QVQLVESGGGLDQAGGSLRLSCAASGSIFNDNVMGWYRQAPWKERELVAGISRSGTRTYYADSVKGRFTISRDNAKNTVYLQMNSLKPEDTAVYYCAAAYGQARRYNGSQYGSWGQGTQVTVSS | high polyreactivity |
| QVQLVESGGGLVQAGGSLRLSCAASGRIFRKYAMGWYRQAPGKERELVAGITWRGTSTYYADSVKGRFTISRDNAKNTVYLQMNSLKPEDTAVYYCAAEWKGYYVHDYWGQGTQVTVSS | high polyreactivity |
| QVQLVESGGGLVQAGGSLRLSCAASGSTFTGYALGWYRQAPGKERELVAAISSGGSTYYADSVKGRFTISRDNAKNTVYLQMNSLKPEDTAVYYCAAAPRWKASRLYYWGQGTQVTVSS | high polyreactivity |
| QVQLVESGGGLVQAGGSLRLSCAASGSIFTENAMGWYRQAPGKERELVATITITGSTNYADSVKGRFTISRDNAKNTVYLQMNSLKPEDTAVYYCNADLYIAFSASAYDYWGQGTQVTVSS | low polyreactivity |
| QVQLVESGGGLVHAGGSLRLSCAASGRTFWTYAMGWYRQAPGKERELVAAISSGGSTYYADSVKGRFTISRDNAKNTVYLQMNSLKPEDTAVYYCATRVYGGYGYWGQGTQVTVSS | high polyreactivity |
| QGQLVESGGCLVQAGGSLRLSCAASGIIFWSYAMGWYRQAPGKERELVAAISRRGGSTSYADSVKGRFTISRDNAKTTVYLQMNSLKPEDTAVYYCAADRYFNPKSYSTEFDYWGQGTQVTVSS | high polyreactivity |
| QVQLVESGGGLVQAGGSLRLSCAASGRTFVRNAMGWYRQAPGKERELVAAISGSAGRTYYADSVKGRFTISRDNAKNTVYLQMNSLKPEDTAVYYCAKDTTVYGYYYWGQGTQVTVSS | high polyreactivity |
| QVQLEESGGGLVQAGGSLRLSCAASGSTFTGYAMGWYRQAPGKERELVAAISISGGRTFYADSVKVRFTISRDNAKNTVYLQMNSLKPEDTAVYYCAAYLRGSKYSFDYWGQGTQVTVSS | high polyreactivity |
| QVQLVESGGGLVQAGGSLRLSCAASGRTFPGYAMGWYRQAAGTERELVAGISYRGGSTYYADSVKGRFTISRDNAKNTVYLQMNSLKPEDTAVYYCARDYSRHKGDYWGQGTQVTVSS | low polyreactivity |
| QVHLVESGGGLVQAGGSLRLSCAASGLTFAWYAMGWYSQAPGKERELVAVISNGGSTNDADSVKGRFTISRDNAKNTVYLQMNSLKPEDTAVYYCAAGWVWSGNDYYYWGQGTQVTVSS | low polyreactivity |
| QVQLVESGGGLVQAGGSLRLSCAASGITFRYYAMGWYRQAPGKERELVAAISSTGGSTYYADSVKGRFTISRDNAKNTVYLQMNSLKPEDTAVYYCNADTTFYGYRTYRPENYWGQGTQVTVSS | high polyreactivity |
| QVQLEESGGGLVQAGGSLRLSCAASGIIFRLYAMGRYRQAPGKERELVAAISSGGSTNYADSVKGRFTISRDNAKNTVYLQMNSLKPEDTAVYYCAAGKAHNYDYWGQGTQVTVSS | low polyreactivity |
| QVQLVESGGGLVQAGGSLRLSCAASGRIFPYYAMGWYRQAPGKERELVATIRGRVGTTYYADSVKGRFTISRDNAKNSVYLEMNSLKPEDTAVYYCNTDNYSPYRYVGLYDYWGQGTQVTVSS | high polyreactivity |
| QVQLVESGGGLVQAGGSLRLSCAASGSIFVGNVMGWYRQAPGKERELVAAIRFSGGNTYYADSVKGRFTISRDNAKNTVYLQMNSLKPEDTAVYYCAARYGQGSYPTKYYYWGQGTQVTVSS | high polyreactivity |
| QVQLVESGGGLVQAGGSLRLSCADSGRTFRANAMGWYRQAPGKERELVAAITSTGDRTYYADSVKGRFTISRDNAKNTVYLQMNSLKPEDTAVYYGNAVYDLYHYWKFYYWGQGTQVTVSS | low polyreactivity |
| QVQLVESGGGLVQAGGSLRLSCAASGFIFRRYAMGWYRQAPGKERELVAAISGSGGRTYYADSVKGRFTISRDNAKNTVYLQMNSLKPEDTAVYYCAADHGSLLYDYWGQGTQVTVSS | high polyreactivity |
| QVQLVESGGGLVQAGGSLRLSCAASGRIFSRYAMGWYRQAPGKERELVAAITRGGSTYYADSVKGRFTISRDNAKNTVYLQMNSLKPEDTAVYYCAKDGYRPDDYGYWGQGTQVTVSS | high polyreactivity |
| QVQLVESGGGLVQAGGSLRLSCAASGSTFAYYAMGWYRQAPGKERELVASISWRGGSTYYAESVKGRFTISRDNAKNTVYLQMNSLKPEDTAVYYCAAGRFYTWSRSQEYDYWGQGTQVTVSS | low polyreactivity |
| QVQLVESGGGLVQAGGSLRLSCAASGTIFAKYAMGWYRQAPGKERELVAAISRSSVRTRYADSVKGRFTISRDYAKNTVYLQMNSLKPEDTAVYYCNAYYRSYAYSHLDYWGQGTQVTVSS | high polyreactivity |
